Source: publication PMC10045213
pKd: −log10 of the molar value.

Molecular target: p75 NeuroTrophin Receptor (UniProt P08138)
Experiment: SPR; TrkA immobilized at 8860 RU, p75NTR immobilized at 4320 RU; 1.7-15 nM hNGF R100W flowed over; curves blank subtracted

UniProt P08138, sequence (P08138 29-427): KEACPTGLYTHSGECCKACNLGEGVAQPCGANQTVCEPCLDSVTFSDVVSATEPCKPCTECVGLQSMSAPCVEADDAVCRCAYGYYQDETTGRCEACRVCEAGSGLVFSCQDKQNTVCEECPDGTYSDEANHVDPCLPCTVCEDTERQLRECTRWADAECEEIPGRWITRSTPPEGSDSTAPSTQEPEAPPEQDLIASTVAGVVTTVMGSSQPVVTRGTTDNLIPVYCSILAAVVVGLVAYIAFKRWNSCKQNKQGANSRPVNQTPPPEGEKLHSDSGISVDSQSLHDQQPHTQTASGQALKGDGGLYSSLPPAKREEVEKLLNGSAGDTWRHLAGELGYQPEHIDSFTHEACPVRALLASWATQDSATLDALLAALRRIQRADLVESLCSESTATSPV

Substance: human NGF R100W (from UniProt P01138 122-241) (ligand)
- pKd: 7.00
